Laboratory results reported in patent US8620595B2, “Methods for determining the retention of peptides in reverse phase chromatography using linear solvent strength theory” (University of Manitoba, priority 2010, dated 2013).

Test: Determination of S from retention time shift Δ relative to P3 at two gradient slopes, nano-RP-HPLC MS of spiked tryptic digest
Assay type: physicochemical
Settings: for Slope (experimental): LC-MS runs of model peptide mixture; for experimental S-value: model peptide mixture (tryptic digest of bovine proteins), 0.75 and 0.1875% acetonitrile per minute gradients, S from Δ vs. S curve of S-calibrating peptides
Description: Proteins and protein digestion. Tryptic digests of two different protein mixtures were utilized. The “test peptide mixture” contained human proteins: albumin, transferrin, fibrinogen. The “model peptide mixture” contained bovine proteins: albumin, transferrin, fibrinogen, catalase. Equimolar mixtures of the proteins were prepared, reduced with DTT, alkylated with iodoacetamide and digested with sequencing-grade modified trypsin (Promega, Madison, Wis.). Prior to nano-LC MS/MS analysis, mixtures were diluted with buffer A (0.1% formic acid in water) and spiked with the 6 standard peptides P1-P6^24 for test mixture and the set of 11 model peptides (described elsewhere^23) for a model mixture. All dilutions were performed to provide an injection of ˜100 fmole of each component into the nanoRP-HPLC MS system.
Chromatography. All chromatographic experiments were conducted at a controlled temperature of 22-23° C. For isocratic measurement of the slope values, a micro-Agilent 1100 Series system (Agilent Technologies, Wilmington, Del.), was used with a 1 mm×100 mm 5 μm Luna C18(2) (Phenomenex, Torrance, Calif.) column and a UV detector operated at 214 nm. Both eluents A (water) and B (acetonitrile) contained 0.1% formic acid as ion-pairing modifier. Stock solutions of the 11 standard peptides (˜1 mg/ml) were prepared by dissolving each peptide in 1 ml of 0.1% FA in water or a 20% acetonitrile solution. Ten microliters of sample was injected. Individual peptides were diluted to provide ˜0.5-1 μg injection of each component using a 10 μl loop. The dead volume of the column and connecting tubings was determined by injecting a non-retained compound (water) and measuring the elution time of the negative peak at a 150 μL/min flow rate. Retention factors for isocratic elution were calculated using the formula: k=(tR−t0)/t0c; where tR is the retention time, t0 is the system (column and tubings) dead time, and t0c is the column dead time. Additional details of measuring S-values via constructing log k vs. φ plots are provided elsewhere.^24 The nano-LC MS/MS experiments were conducted using splitless Tempo LC system (Eksigent, Dublin, Calif.) with 20 μL sample injection via a 300 μm×5 mm PepMap100 (Dionex, Sunnyvale, Calif.) trap-column and a 100 μm×200 mm analytical column packed with 5 μm Luna C18(2) (Phenomenex, Torrance, Calif.). Tryptic digests of the mixtures were spiked with calibrating peptides (see Table 1) as described above, injected on the trap-column using buffer A as a carrier and separated using 0.1875, 0.375 and 0.75 percent acetonitrile per minute linear gradients starting from 0.5% acetonitrile at 500 nL/min flow rate. The composition of both eluents A and B was identical to one described above for normal-flow system. Gradient programs consisted of a 0.5-40% linear increase of buffer B in 213.2, 106.6 and 53.3 minutes, respectively. After each run the gradient columns were washed with 80% B for 3 minutes and equilibrated with the starting A:B ratio for 18 minutes.
Mass spectrometry. A QStar Elite mass spectrometer (Applied Biosystems, Foster City, Calif.) equipped with a MicrolonSpray II source was used in standard MS/MS information dependent acquisition (IDA) mode for LC-ESI analyses. Protein identification was performed using Protein Pilot 3.0 (Applied Biosystems, Foster City, Calif.) with a restricted database containing target protein sequences and the sequences of standard peptides. Retention times of identified species (peak maxima) were assigned manually.
These two ways of measurement have been combined to provide a highly accurate and fast way of determining S for an extensive sets of peptides (see FIG. 3). First, precise isocratic measurement of S is performed in normal flow conditions with UV detection for a set of synthetic “S-calibrating” peptides. […]

Substance | Slope (experimental) (experimental S value) | Slope (experimental) (experimental S, formic acid) | also measured
KLGAPSITCVR | 37.615 | – | –
RHPEYAVSVLLR | – | 32.553 | –
LGEYGFQNALIVR | 29.764 | – | –
LLGSLSLDAFR | 28.402 | – | –
LLGGGSLSSSLHAAAFR | 35.968 | – | –
TGQIFK | – | 24.984 | –
VLNEEQR | – | 40.229 | –
DLLFR [tryptic peptide detected in the model peptide mixture] | – | 18.36 | experimental S-value (formic acid): 18.4
CLQDGAGDVAFVK | 31.382 | – | –
SMMEEIMK | 25.394 | – | –
ELPDPQESIQR | 34.299 | – | –
FFSASCVPCIDR | 32.333 | – | –
DLGEEHFK | – | 32.597 | –
AEFVEVTK | 29.046 | – | –
APVDAFK | – | 26.378 | –
GSNFQLDQLQGR | 30.314 | – | –
QSPVDIDTK | – | 31.703 | –
DGPLTGTYR | – | 28.947 | –
YICDNQDTISSK | 37.666 | – | –
NYELLCGDNTR | – | 27.868 | –
DAQLFIQK | 24.282 | – | –
RTPIAVR | 39.365 | – | –
EEGSVSSGTKQEFHTGK | – | 48.449 | –

Substance | Slope (experimental) (experimental S value) | Slope (experimental) (experimental S, formic acid) | also measured
RAFALECIR | 31.043 | – | –
DSADGFLK | – | 22.49 | –
LAVAAHFR | 34.392 | – | –
ARPATATVGQK | – | 51.675 | –
LLHAAHFR | 39.794 | – | –
LRDSLFNYQK | 31.66 | – | –
GEADALNLDGGYIYTAGK | – | 31.382 | –
GDSVSQGTGLAPGSPR | 38.571 | – | –
VYCDMK | 35.652 | – | –
NYELLCGDNTRK | – | 31.767 | –
LCENIAGHLK | 37.285 | – | –
KANEGLTWNSLK | – | 31.085 | –
QDGSVDFGR | – | 28.518 | –
ENFEVLCK | 27.436 | – | –
NLSVEDAAR | 32.289 | – | –
LNELR | 32.443 | – | –
IRPYFPEQ | 28.791 | – | –
DTDFKLNELR | 30.459 | – | –
QAYPNLCQLCK | 32.399 | – | –
IEILR | 24.216 | – | –
THFSGDVQR | 42.53 | – | –
LLHLAHFR | 33.837 | – | –
MKGLIDEVDQDFTSR | 33.2 | – | –

Substance | Slope (experimental) (experimental S value) | Slope (experimental) (experimental S, formic acid) | also measured
SEDGSDCGDADFDWHHTFPSR | – | 37.158 | –
WQWR | 22.398 | – | –
EPYFGYSGAFK | 28.713 | – | –
TSDANINWNNLK | 30.109 | – | –
TFYLK | 22.874 | – | –
ILESGPFVSCVK | 29.323 | – | –
SFQLFGSPPGQR | – | 24.764 | –
DDPHACYSTVFDKLK | – | 35.483 | –
EGFGHLSPTGNTEFWLGNEK | 36.558 | – | –
HLVDEPQNLIK | 35.894 | – | –
VVWCAVGPEEQK | 29.603 | – | –
WYSMK | 25.257 | – | –
ELLIDNEK | – | 25.018 | –
QGFGNIATNAEGK | – | 31.595 | –
LLGGSLSSLHAAFR | 34.021 | – | –
KPVTEAQSCHLAVAPNHAVVSR | 49.479 | – | –
DSADGFLKIPSK | – | 30.089 | –
DDSPDLPK | – | 30.875 | –
LDGSLDFK | 25.689 | – | –
KFWGK | – | 27.604 | –
DGTRKPVTDAENCHLAR [tryptic peptide of the model peptide mixture, 5 positively charged groups] | 50.359 | – | experimental S-value (formic acid): 50.4
LLVAAHFR | 31.212 | – | –
NTVDSVSR | 40.092 | – | –
